Data reported in paper PMC9935876, “Structure of the planar cell polarity cadherins Fat4 and Dachsous1” (Nature Communications, 2023).
Where a chain is given by its changes, count along the chain named. Names may count otherwise. “And” between values parts separate entries of the source, which are not always exact repeats. Equal values may be shown once. Read-outs that look alike come from different tables or passages of the source. Values belong to the molecule of their own block, whether it stands above or below them.

Assays:
[1] = target: Phosphorylated Drosophila Ft(EC1-4) (Drosophila) (UniProt P33450); assay: ITC; MicroCal ITC200; fly Ft(EC1-4) ~50 µM, fly Ds(EC1-4) ~300 µM; proteins phosphorylated with Fj as needed; 20 °C; one set of sites
[2] = target: Phosphorylated Drosophila Ft(EC1-4) (Drosophila) (UniProt P33450); assay: ITC; MicroCal ITC200; fly Ft(EC1-4) ~50 µM and Ds(EC1-4) ~300 µM, unmodified or phosphorylated with Fj; same conditions as for the human proteins (20 °C); fitted with one set of sites; two independent experiments
[3] = target: Drosophila Ft(EC1–4), phosphorylated (Drosophila); assay: ITC; fly Ft(EC1–4) at ~50 μM and Ds(EC1–4) at ~300 μM, unmodified or phosphorylated with Fj; same conditions as for the human proteins (20 °C); one set of sites
[4] = target: CDH23 EC1-EC2 (UniProt Q99PF4); conditions: cited from earlier work
[5] = target: T1, Human Fat4(EC1-4) (human, UniProt Q6V0I7 43-475); assay: ITC; MicroCal ITC200; Fat4 constructs 30 µM in the sample cell, Dchs1 constructs 300 µM as titrants; 20 °C; one set of sites; conditions: both partners purified
T1 construct: human Fat4, extracellular cadherin domains EC1-EC4, aa43-475; A 3C protease site stands between the protein and the C-terminal BAP-tag and His6; also called WT
T1 sequence: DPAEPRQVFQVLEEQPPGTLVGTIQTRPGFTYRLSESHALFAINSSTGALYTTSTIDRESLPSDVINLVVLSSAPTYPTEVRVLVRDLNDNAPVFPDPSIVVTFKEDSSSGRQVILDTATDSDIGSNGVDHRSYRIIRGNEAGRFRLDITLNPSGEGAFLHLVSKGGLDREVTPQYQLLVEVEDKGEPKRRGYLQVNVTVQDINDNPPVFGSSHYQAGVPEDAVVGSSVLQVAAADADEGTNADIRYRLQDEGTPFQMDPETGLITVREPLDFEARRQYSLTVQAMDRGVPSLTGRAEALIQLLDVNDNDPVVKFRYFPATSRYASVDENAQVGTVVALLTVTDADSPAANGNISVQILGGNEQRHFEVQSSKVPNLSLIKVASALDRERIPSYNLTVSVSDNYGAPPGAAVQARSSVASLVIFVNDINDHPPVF

[6] = target: T2, human Fat4(EC1–4) (human, UniProt Q6V0I7 43-475); assay: ITC; MicroCal ITC200; Fat4 constructs at 30 µM in the sample cell, Dchs1 constructs at 300 µM as titrants; 20 °C; one set of sites; conditions: both partners purified
T2 construct: human Fat4, EC1–EC4, aa43–475; Form used in ITC; also called wild type Fat4(EC1–4)
T2 sequence: T1 sequence

[7] = target: T3, Human Fat4(EC1-4) (human, UniProt Q6V0I7 43-475); assay: ITC; MicroCal ITC200; Fat4 construct 30 µM in the sample cell, Dchs1 construct 300 µM as titrant; 20 °C; fitted with one set of sites; two independent experiments; conditions: both partners purified
T3 construct: Fat4, human, EC1-EC4, aa43-475; Tags were cleaved only for the constructs meant for co-crystallisation; nothing is said for ITC; also called Fat4 EC1–EC4
T3 sequence: T1 sequence

[8] = target: T4, Human Fat4(EC1-4) R152A (human, UniProt Q6V0I7 43-475, R152A); assay: ITC; MicroCal ITC200; Fat4 constructs at 30 µM in the sample cell, Dchs1 constructs at 300 µM as titrants; 20 °C; one set of sites
T4 construct: human Fat4, EC1-EC4, aa43-475, with R152A in EC2; also called Fat4R152A(EC1-4); Fat4R152A
T4 sequence: T1 sequence with R112A

[9] = target: T5, Human Fat4(EC1-4) F358A (human, UniProt Q6V0I7 43-475, F358A); assay: ITC; MicroCal ITC200; Fat4 constructs 30 µM in the sample cell, Dchs1 constructs 300 µM as titrants; 20 °C; one set of sites; conditions: both partners purified
T5 construct: human Fat4, EC1-EC4, aa43-475, with F358A in EC4; also called Fat4F358A(EC1-4); Fat4F358A
T5 sequence: T1 sequence with F318A

[10] = target: T4, Human Fat4(EC1-4) R152A; assay: as above; conditions: both partners purified
[11] = target: Human Fat4R152A(EC1-4) (human) (UniProt Q6V0I7); assay: ITC; MicroCal ITC200; Fat4 construct 30 µM in the sample cell, Dchs1 construct 300 µM as titrant; 20 °C; fitted with one set of sites; two independent experiments

Sequence of Phosphorylated Drosophila Ft(EC1-4) (Drosophila) (P33450 36-5147): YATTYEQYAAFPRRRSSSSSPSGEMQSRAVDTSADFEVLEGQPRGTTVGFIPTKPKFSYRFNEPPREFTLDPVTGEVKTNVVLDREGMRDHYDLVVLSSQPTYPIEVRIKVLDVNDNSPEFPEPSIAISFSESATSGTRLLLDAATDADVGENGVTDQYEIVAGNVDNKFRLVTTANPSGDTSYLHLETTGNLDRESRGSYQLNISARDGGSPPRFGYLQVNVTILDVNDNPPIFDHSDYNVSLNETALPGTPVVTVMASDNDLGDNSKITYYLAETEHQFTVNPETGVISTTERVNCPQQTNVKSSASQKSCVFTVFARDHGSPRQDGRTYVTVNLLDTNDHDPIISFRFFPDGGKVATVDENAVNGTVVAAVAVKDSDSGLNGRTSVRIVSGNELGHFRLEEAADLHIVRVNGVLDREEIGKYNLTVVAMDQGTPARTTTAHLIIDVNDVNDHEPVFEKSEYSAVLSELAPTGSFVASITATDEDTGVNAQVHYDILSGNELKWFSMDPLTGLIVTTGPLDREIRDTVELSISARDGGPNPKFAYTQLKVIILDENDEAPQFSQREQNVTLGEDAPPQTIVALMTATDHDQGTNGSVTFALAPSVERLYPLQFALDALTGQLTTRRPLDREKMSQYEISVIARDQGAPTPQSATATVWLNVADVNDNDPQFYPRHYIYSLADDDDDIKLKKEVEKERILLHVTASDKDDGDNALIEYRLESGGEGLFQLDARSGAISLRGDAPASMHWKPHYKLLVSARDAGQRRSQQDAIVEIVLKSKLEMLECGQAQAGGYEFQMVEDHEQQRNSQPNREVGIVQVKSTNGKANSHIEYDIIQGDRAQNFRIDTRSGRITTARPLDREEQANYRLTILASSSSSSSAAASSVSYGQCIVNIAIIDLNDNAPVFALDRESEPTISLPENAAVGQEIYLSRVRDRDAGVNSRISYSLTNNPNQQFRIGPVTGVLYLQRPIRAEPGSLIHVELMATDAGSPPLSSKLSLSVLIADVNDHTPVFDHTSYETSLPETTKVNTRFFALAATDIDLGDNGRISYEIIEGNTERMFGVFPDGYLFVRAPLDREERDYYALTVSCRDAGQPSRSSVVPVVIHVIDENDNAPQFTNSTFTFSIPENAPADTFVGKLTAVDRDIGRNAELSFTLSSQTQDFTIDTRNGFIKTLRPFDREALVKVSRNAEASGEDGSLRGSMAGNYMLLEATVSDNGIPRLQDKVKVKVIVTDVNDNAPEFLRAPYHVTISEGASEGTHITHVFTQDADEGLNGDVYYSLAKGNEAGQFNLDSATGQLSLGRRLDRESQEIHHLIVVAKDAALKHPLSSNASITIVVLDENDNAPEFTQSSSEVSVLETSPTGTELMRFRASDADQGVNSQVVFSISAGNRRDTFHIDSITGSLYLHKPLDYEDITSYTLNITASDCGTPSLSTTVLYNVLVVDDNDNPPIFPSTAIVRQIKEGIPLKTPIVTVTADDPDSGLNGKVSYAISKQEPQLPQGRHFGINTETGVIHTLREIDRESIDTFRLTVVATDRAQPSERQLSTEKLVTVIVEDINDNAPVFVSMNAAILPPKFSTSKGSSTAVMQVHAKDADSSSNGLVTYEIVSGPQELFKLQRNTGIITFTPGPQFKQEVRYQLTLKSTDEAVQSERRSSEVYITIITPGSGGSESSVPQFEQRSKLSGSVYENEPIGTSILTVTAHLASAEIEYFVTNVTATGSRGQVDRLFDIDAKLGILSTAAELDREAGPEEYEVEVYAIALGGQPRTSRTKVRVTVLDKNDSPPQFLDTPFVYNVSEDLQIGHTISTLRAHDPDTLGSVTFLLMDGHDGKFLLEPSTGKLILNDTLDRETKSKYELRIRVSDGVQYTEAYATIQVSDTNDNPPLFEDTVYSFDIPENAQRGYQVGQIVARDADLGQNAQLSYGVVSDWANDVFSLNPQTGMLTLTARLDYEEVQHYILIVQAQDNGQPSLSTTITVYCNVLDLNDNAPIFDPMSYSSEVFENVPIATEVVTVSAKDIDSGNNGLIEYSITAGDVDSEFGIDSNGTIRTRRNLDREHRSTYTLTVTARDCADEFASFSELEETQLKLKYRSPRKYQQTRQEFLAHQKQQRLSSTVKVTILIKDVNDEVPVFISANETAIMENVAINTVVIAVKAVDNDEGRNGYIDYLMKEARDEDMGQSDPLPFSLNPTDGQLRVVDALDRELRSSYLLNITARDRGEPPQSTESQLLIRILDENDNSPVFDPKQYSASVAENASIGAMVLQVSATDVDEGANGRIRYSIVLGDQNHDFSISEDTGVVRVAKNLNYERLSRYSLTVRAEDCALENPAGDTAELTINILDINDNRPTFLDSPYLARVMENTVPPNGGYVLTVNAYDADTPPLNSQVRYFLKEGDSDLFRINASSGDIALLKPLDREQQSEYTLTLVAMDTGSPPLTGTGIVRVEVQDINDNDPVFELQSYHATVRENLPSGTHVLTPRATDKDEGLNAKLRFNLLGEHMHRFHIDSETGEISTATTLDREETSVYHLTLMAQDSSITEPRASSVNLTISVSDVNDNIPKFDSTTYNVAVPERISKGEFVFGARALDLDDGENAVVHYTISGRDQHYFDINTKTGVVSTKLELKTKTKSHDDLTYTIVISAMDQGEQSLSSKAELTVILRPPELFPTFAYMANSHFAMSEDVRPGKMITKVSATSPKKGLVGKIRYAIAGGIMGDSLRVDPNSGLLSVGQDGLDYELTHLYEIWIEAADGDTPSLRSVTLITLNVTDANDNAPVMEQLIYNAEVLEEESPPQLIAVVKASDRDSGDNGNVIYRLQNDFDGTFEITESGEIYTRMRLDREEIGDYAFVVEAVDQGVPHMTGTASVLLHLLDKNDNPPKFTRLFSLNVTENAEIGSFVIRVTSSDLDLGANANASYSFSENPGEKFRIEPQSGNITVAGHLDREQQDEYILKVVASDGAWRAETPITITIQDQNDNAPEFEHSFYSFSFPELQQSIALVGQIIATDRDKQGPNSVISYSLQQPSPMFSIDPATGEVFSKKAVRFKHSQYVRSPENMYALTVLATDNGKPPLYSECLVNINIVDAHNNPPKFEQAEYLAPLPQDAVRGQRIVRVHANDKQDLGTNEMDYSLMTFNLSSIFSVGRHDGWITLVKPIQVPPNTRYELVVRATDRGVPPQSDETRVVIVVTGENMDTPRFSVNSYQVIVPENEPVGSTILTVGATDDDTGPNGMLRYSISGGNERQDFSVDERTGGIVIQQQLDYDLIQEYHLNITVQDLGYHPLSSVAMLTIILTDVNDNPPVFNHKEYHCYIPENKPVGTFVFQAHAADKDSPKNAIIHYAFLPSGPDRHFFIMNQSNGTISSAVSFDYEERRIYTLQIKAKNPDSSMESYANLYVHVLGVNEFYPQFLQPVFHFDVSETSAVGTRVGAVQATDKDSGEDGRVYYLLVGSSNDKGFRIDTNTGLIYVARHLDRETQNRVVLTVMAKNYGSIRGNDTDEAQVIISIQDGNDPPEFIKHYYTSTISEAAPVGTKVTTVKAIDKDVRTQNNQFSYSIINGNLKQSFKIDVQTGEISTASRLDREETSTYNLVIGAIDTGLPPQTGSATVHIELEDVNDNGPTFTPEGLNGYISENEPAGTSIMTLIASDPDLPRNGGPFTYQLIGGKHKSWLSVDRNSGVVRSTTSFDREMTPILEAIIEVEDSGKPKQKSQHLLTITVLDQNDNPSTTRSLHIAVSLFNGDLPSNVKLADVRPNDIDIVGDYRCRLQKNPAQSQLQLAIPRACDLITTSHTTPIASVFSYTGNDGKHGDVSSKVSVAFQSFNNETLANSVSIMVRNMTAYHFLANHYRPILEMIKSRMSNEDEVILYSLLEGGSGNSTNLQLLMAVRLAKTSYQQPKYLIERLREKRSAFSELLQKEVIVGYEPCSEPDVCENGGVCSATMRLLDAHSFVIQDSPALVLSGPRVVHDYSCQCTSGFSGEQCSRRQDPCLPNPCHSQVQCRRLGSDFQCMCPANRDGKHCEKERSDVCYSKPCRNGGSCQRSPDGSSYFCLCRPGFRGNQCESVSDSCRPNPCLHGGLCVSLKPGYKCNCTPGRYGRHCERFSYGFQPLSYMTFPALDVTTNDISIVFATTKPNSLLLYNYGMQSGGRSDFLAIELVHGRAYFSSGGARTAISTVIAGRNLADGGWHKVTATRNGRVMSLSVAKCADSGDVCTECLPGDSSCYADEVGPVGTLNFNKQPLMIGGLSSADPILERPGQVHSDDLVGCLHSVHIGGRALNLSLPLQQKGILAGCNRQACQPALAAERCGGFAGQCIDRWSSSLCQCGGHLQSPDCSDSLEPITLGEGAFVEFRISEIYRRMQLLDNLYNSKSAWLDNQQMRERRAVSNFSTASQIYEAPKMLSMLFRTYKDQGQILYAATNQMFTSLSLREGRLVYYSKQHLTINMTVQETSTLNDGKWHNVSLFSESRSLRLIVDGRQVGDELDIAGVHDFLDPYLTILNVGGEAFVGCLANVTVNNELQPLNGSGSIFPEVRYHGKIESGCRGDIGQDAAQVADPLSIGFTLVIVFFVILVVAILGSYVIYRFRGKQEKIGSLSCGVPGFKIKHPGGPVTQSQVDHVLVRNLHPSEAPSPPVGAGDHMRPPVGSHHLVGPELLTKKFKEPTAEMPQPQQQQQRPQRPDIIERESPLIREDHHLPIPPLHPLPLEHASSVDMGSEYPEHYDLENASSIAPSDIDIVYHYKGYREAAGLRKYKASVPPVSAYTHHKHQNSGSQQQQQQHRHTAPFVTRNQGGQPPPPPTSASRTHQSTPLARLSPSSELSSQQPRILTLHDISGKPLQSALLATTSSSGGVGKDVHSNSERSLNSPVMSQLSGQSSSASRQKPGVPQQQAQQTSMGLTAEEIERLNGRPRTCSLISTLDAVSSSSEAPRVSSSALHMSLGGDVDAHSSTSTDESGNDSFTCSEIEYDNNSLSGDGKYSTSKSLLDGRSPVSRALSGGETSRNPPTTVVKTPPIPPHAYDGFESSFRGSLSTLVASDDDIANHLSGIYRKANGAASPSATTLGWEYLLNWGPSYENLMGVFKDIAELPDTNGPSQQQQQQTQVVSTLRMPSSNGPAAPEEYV

stoichiometry N [1]: 0.751 sites
Kd [2]: 13.6 µM and 11.4 µM
Molecule: Phosphorylated Drosophila Ds(EC1-4) (from UniProt Q24292 74-3556) (domain or fragment)

Kd [2]: 4.1 µM and 5.05 µM
Molecule: Drosophila Ds(EC1-4), unmodified (from UniProt Q24292 74-3556) (domain or fragment)

Kd [3]: 12.5 µM
Molecule: Drosophila Ds(EC1–4), phosphorylated (domain or fragment)

Molecule: PCDH15 EC1-EC2 (from UniProt Q99PJ1)
Kd [4]: 2.9 µM

stoichiometry N [1]: 0.777 sites
Molecule: Drosophila Ds(EC1-4) (from UniProt Q24292 74-3556) (domain or fragment)

Kd [3]: 4.58 µM
Molecule: Drosophila Ds(EC1–4), unmodified (domain or fragment)

stoichiometry N [5]: 0.978 ± 0.0137 sites
B1: Human Dchs1(EC1-3) (domain or fragment)
chain: DPQAGSLDLQIDEEQPAGTLIGDISAGLPAGTAAPLMYFISAQEGSGVGTDLAIDEHSGVVRTARVLDREQRDRYRFTAVTPDGATVEVTVRVADINDHAPAFPQARAALQVPEHTAFGTRYPLEPARDADAGRLGTQGYALSGDGAGETFRLETRPGPDGTPVPELVVTGELDRENRSHYMLQLEAYDGGSPPRRAQALLDVTLLDINDHAPAFNQSRYHAVVSESLAPGSPVLQVFASDADAGVNGAVTYEINRRQSEGDGPFSIDAHTGLLQLERPLDFEQRRVHELVVQARDGGAHPELGSAFVTVHVRDANDNQPSM
notes: human Dachsous1 (Dchs1), extracellular cadherin domains EC1-EC3, aa43-362; A 3C protease site stands between the protein and the C-terminal BAP-tag and His6

Kd [6]: 0.98 ± 0.12 µM
B2: human Dchs1(EC1–3) (domain or fragment)
chain: B1 chain
notes: human Dchs1, EC1–EC3, aa43–362; Form used in ITC; also called wild type Dchs1(EC1–3)

Kd [7]: 0.98 µM and 0.97 µM
B3: Human Dchs1(EC1-3) (domain or fragment)
chain: B1 chain
notes: Dchs1 (Dachsous1), human, EC1-EC3, aa43-362

fold decrease in binding affinity against wild type [8]: 9 fold
B4: human Dchs1(EC1–4) (domain or fragment)
chain: DPQAGSLDLQIDEEQPAGTLIGDISAGLPAGTAAPLMYFISAQEGSGVGTDLAIDEHSGVVRTARVLDREQRDRYRFTAVTPDGATVEVTVRVADINDHAPAFPQARAALQVPEHTAFGTRYPLEPARDADAGRLGTQGYALSGDGAGETFRLETRPGPDGTPVPELVVTGELDRENRSHYMLQLEAYDGGSPPRRAQALLDVTLLDINDHAPAFNQSRYHAVVSESLAPGSPVLQVFASDADAGVNGAVTYEINRRQSEGDGPFSIDAHTGLLQLERPLDFEQRRVHELVVQARDGGAHPELGSAFVTVHVRDANDNQPSMTVIFLSADGSPQVSEAAPPGQLVARISVSDPDDGDFAHVNVSLEGGEGHFALSTQDSVIYLVCVARRLDREERDAYNLRVTATDSGSPPLRAEAAFVLHVTDVNDNAPAF

stoichiometry N [5]: 1.06 ± 0.0114 sites
stoichiometry N [9]: 0.915 ± 0.0119 sites
stoichiometry N [10]: 0.965 ± 0.0359 sites
B5: Human Dchs1(EC1-4) (domain or fragment)
chain: B4 chain
notes: human Dachsous1 (Dchs1), extracellular cadherin domains EC1-EC4, aa43-472; A 3C protease site stands between the protein and the C-terminal BAP-tag and His6; also called Dachsous1; WT

Kd [6]: 0.47 ± 0.13 µM
B6: human Dchs1(EC1–4) (domain or fragment)
chain: B4 chain
notes: human Dchs1, EC1–EC4, aa43–472; Form used in ITC; also called Dachsous1(EC1–4); wild type Dchs1(EC1–4)

Kd [11]: 3.39 µM and 5.18 µM
Kd ([11]; mean): 4.29 µM
B7: Human Dchs1(EC1-4) (domain or fragment)
chain: B4 chain

stoichiometry N [5]: 1.02 ± 0.138 sites
B8: Human Dchs1(EC1-4) R297A (domain or fragment)
chain: B4 chain with R257A
notes: human Dachsous1 (Dchs1), EC1-EC4, aa43-472, with R297A; also called Dchs1R297A(EC1-4); Dchs1R297A

stoichiometry N [5]: 0.924 ± 0.00978 sites
B9: Human Dchs1(EC1-4) F79A (domain or fragment)
chain: B4 chain with F39A
notes: human Dachsous1 (Dchs1), EC1-EC4, aa43-472, with F79A in EC1; also called Dchs1F79A(EC1-4); Dchs1F79A
